T1: human DLL3 extracellular domain (ECD) with C-terminal 8xHis tag and Avi tag (human, UniProt Q9NYJ7 27-492)
T1 construct: extracellular domain; Expressed in Expi293, purified by IMAC and SEC; also called huDLL3; not shown: Avi tag
T1 sequence: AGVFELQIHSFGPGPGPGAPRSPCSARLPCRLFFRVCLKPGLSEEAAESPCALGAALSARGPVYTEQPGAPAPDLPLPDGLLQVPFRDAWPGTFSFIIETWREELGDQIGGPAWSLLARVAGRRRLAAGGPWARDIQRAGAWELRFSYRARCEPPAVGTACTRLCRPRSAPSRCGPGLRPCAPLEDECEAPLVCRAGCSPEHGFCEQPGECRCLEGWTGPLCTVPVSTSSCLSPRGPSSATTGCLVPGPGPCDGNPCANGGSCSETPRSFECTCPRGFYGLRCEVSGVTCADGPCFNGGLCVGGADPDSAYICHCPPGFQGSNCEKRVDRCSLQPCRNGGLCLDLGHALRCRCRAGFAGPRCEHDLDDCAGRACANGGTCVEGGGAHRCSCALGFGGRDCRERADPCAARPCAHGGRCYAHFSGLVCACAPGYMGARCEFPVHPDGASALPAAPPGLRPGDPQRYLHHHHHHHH

T2: mouse DLL3 extracellular domain (ECD) with C-terminal 8xHis tag and Avi tag (mouse, UniProt O88516 33-490)
T2 construct: extracellular domain; Expressed in Expi293, purified by IMAC and SEC; also called msDLL3; not shown: Avi tag
T2 sequence: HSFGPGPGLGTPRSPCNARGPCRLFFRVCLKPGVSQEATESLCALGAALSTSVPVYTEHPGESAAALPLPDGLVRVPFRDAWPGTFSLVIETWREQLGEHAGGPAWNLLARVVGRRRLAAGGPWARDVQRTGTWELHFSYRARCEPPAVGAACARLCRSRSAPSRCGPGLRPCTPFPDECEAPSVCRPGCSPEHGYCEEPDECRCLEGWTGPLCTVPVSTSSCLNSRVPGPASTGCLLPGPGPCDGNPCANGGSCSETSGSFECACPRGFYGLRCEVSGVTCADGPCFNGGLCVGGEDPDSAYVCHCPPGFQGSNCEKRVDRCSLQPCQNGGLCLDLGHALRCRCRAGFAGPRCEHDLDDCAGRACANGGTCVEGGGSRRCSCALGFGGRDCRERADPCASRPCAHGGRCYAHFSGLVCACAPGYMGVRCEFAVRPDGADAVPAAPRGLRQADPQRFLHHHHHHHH

T3: cynomolgus monkey DLL3 extracellular domain (ECD) with C-terminal 8xHis tag and Avi tag (cynomolgus monkey, UniProt A0A2K5WSR1 27-490)
T3 construct: extracellular domain; Expressed in Expi293, purified by IMAC and SEC; also called cynoDLL3; cyno DLL3; not shown: Avi tag
T3 sequence: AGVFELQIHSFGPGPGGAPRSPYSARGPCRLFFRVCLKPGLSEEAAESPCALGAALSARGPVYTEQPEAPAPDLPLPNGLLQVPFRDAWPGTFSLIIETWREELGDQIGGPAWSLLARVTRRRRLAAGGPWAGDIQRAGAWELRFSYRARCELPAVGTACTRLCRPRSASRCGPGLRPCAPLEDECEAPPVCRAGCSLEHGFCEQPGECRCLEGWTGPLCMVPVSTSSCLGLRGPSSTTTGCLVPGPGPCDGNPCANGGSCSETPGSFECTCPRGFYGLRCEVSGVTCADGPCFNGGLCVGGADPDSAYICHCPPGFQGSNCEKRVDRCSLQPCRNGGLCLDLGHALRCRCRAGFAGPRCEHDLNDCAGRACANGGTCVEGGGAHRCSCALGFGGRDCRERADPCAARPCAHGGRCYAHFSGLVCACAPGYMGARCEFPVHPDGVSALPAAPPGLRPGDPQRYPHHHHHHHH


Columns and labels:
[1] = molecular target: T1, human DLL3 extracellular domain (ECD) …; assay: SPR (Biacore), 37 C; scFv-Fc captured on chip, human DLL3 ECD in solution; 1:1 Langmuir fit
Protocol: (§1) The antibody binding kinetics were determined by surface plasmon resonance (Biacore™ surface plasmon resonance (SPR) system, GE Healthcare Bio-Sciences, Pittsburgh Pa.). The antibodies diluted in HBS-T+ running buffer (0.01 M HEPES pH 7.4, 0.15 M NaCl, 0.05% v/v Tween20, 1 mg/mL BSA) were captured on a CM4 chip immobilized with an antibody specific for the anti-DLL3 antibody constant domains. Purified DLL3 was serially diluted into HBS-T+, injected for 2 min at 30 uL/min and a dissociation time of 10 min then the surface regenerated with either 10 mM Glycine-HCl pH 1.7 or phosphoric acid between injections. […] Equilibrium dissociation constant (Kd) values are calculated as koff/kₒₙ.

[2] = molecular target: T2, mouse DLL3 extracellular domain (ECD) …; assay: SPR (Biacore), 37 C; scFv-Fc captured on chip, mouse DLL3 ECD in solution; 1:1 Langmuir fit
Protocol: as §1

[3] = molecular target: T3, cynomolgus monkey DLL3 extracellular …; assay: SPR (Biacore), 37 C; scFv-Fc captured on chip, cyno DLL3 ECD in solution; 1:1 Langmuir fit
Protocol: as §1

| Kd [1] | Kd [2] | Kd [3] | Binder |
| --- | --- | --- | --- |
| 27.3 nM | – | – | 7F9 scFv-Fc fusion (Fc fusion, not shown: a dimerising Fc or GST, scFv-Fc expressed in Expi293) scFv: EVQLVESGGGLVQPGGSLRLSCAASGFTFSSHDMHWVRQATGKGLEWVSAIGIAGDTYYSGSVKGRFTISRENAKNSLYLQMNSLRAGDTAVYYCARANWGEGAFDIWGQGTMVTVSSGGGGSGGGGSGGGGSGGGGSDIQMTQSPSSLSASVGDRVTITCRASQGISDYLAWYQQKPGKIPKLLIYAASTLQSGVPSRFSGSGSGTDFTLTISSLQPEDVATYYCQKYNSVPLTFGGGTKVEIK |
| 23.3 nM | 18.6 nM | 27 nM | 4H8 scFv-Fc fusion (Fc fusion, not shown: a dimerising Fc or GST, scFv-Fc expressed in Expi293) scFv: QVQLQQSGPGLVKPSQTLSLTCAISGDSVSSNSATWNWIRQSPSRGLEWLGRTYYRSKWYDDYAVSVKSRITINPDTSKNHLSLHLNSVTPEDTAVYYCAGGGLVGAPDGFDVWGQGTMVTVSSGGGGSGGGGSGGGGSGGGGSQSVLTQPPSASGTPGQRVTISCSGSSSNIGSDPVNWYQQLPGTAPKLLIYSNNQRPSGVPDRFSGSKSGTSASLAISGLQSEDEADYYCSAWDDSLNGYVFGTGTKVTVL |
| 40.8 nM | 19.3 nM | – | 6F8 scFv-Fc fusion (Fc fusion, not shown: a dimerising Fc or GST, scFv-Fc expressed in Expi293) scFv: QVQLVQSGAEVKKPGSSVKVSCKASGGTFTNYCISWVRQAPGQGLEWMGGIIPIFGTTNYAQTFQGRVTITADKSTSTAYMELSSLRSEDTAVYYCARDNGDRYYYDMDVWGQGTTVTVSSGGGGSGGGGSGGGGSGGGGSQSVLTQPPSVSAAPGQKVTISCSGSSSNIGNNYVSWYQQLPGTAPKLLIYDNNKRPSGIPDRFSGSKSGTSATLGITGLQTGDEADYYCGTWDSSLSAVVFGGGTKLTVL |
| 17.2 nM | 2.61 nM | 20.5 nM | 2G1 scFv-Fc fusion (Fc fusion, not shown: a dimerising Fc or GST, scFv-Fc expressed in Expi293) scFv: QLQLQESGPGLVKPSETLSLTCTVSGGSISSSSYYWGWIRQPPGKGLEWIGSIYYSGNIYHNPSLKSRVSISVDTSKNQFSLRLSSVTAADTAVYYCAREIIVGATHFDYWGQGTLVTVSSGGGGSGGGGSGGGGSGGGGSAIQMTQSPSSLSASVGDRVTITCRASQGIRNDLGWYQQKPGKAPELLIYAASSLQSGVPSRFSGSGSGTDFTLTISSLQPEDFATYYCLQDYNYPLTFGPGTKVDIK |
| 23.3 nM | 7.19 nM | 21.8 nM | 9D3 scFv-Fc fusion (Fc fusion, not shown: a dimerising Fc or GST, scFv-Fc expressed in Expi293) scFv: QVQLQESGPGLVKPSETLSLTCTVSDDSISNYYWSWIRQPPGKGLEWIGYIFYSGTTNHNPSLKSRLTISLDKAKNQFSLRLSSVTAADTAVYYCARVFNWGFAFDIWGQGTMVTVSSGGGGSGGGGSGGGGSGGGGSEIVLTQSPGTLSLSPGERATLSCRASQRISRTYLAWYQQKPGQAPRLLIYGASSRATGIPDRFTGSGSGTDFTLTISRLEPEDFAVYYCQQYGTSPLTFGGGTKVEIN |
| 8.18 nM | – | 6.81 nM | 3F2 scFv-Fc fusion (Fc fusion, not shown: a dimerising Fc or GST, scFv-Fc expressed in Expi293) scFv: QVQLQESGPGLVKPSGTLSLTCAVSGGSISSNNWWSWVRQPPGKGLEWIGDIHHSGSTNYKPSLKSRVTISVDKSKNQFSLNLISVTAADTAVYYCAREAGGYFDYWGQGILVTVSSGGGGSGGGGSGGGGSGGGGSDIQMTQSPSTLSASVGDRVTITCRASQSISSWLAWYQQKPGKAPKLLISKASSLESGVPSRFSGSGSGPEFTLTISSLQPADFATYYCQQYNSYSTFGQGTKLEIK |
| 48.4 nM | 42.1 nM | 46.8 nM | 2A6.C5 scFv-Fc fusion (Fc fusion, not shown: a dimerising Fc or GST, scFv-Fc expressed in Expi293) scFv: QVQLQESGPGLVKPSETLSLTCTVSNVSISSYYWSWIRQPPGKGLEWIGYIYYSGTTNYNPSLKSRVTMSVDTSKNQFSLKLSSVTAADTAVYFCARLSNWGFAFDIWGQGTMVTFSSGGGGSGGGGSGGGGSGGGGSEIVLTQSPGTLSLSPGERATLSCRASQTISSSYLAWYQQKPGQAPRLLIYGASSRATGIPDRFSGSGSGTEFTLTISRLEPEDFAVYYCQQYGWSPITFGQGTRLEIK |
| 186 nM | – | – | 9H12-K scFv-Fc fusion (Fc fusion, not shown: a dimerising Fc or GST, scFv-Fc expressed in Expi293) scFv: QVQLVQSGAEVKKPGASVKVSCKASGYTFTGYSIHWVRQAPGQGLEWMGWINPNSGGTFYAQKFQGRVTMTRDTSISTVYMELSRLRSDDTAVYYCARDGWGDYYYYGLDVWGQGTTVTVSLGGGGSGGGGSGGGGSGGGGSDIQMTQSPSSVSASVGDRVTITCRASQDISSWLAWYQQKPGKAPKLLIYTASSLQGGVPSRFSGSGSGTDFTLTISSLQPEDLATYSCQQANVFPYTFGQGTKLEIK |
| 3.82 nM | – | < 0.97 nM | 17A2 scFv-Fc fusion (Fc fusion, not shown: a dimerising Fc or GST, scFv-Fc expressed in Expi293) scFv: QVQLQESGPGLVKPSGTLSLTCVVFGDSISSSNWWSWVRQPPGKGLEWIGEVFHSGSTNYNPSLKSRVTISVDKSKNQFSLKLSSVTAADTAVYYCARAAVAGALDYWGQGTLVTVSSGGGGSGGGGSGGGGSGGGGSDIVMTQSPDSLAVSLGERATINCKSSQSVLYSSNNKNYLAWYQQKPGQPPNLLVYWASTRESGVPDRFSGAGSGTDFTLTISSLQAEDVAVYYCQQYYGTSWTFGQGTKVEIK |
| 26.3 nM | 27.7 nM | 28.8 nM | 10G1-K scFv-Fc fusion (Fc fusion, not shown: a dimerising Fc or GST, scFv-Fc expressed in Expi293) scFv: EVQLLESGGGLVQPGGSLRLSCAASGFTFSSYAMNWVRQAPGKGLEWVSTISGSGGSTYYADSVKGRFTISRDNSKNTLYLQMNSLRAEDTAVFYCAIDPEYYDILTGGDYWGQGTLVTVSSGGGGSGGGGSGGGGSGGGGSDIQMTQSPSAMSASVGDRVTITCRASQGISNYLAWFQQKPGKVPKRLIYAASSLQSGVPSRFSGSGSGTEFTLTISSLQPEDFATYFCLQHDSFPLTFGGGTKVEIK |
| < 1.2 nM | < 1.5 nM | – | 6D8 scFv-Fc fusion (Fc fusion, not shown: a dimerising Fc or GST, scFv-Fc expressed in Expi293) scFv: QITLKESGPTLVKPTQTLTLTCTFSGFSLSTRGVGVGWIRQPPGKALEWLALIYWNDDKRYSPSLQTRLTITKDTPKNQVVLTMTNMDPVDTATYYCARSNWGNWYFALWGRGTLVTVSSGGGGSGGGGSGGGGSGGGGSEIVLTQSPATLSLSPGERATLSCRASQSVSSYLAWYQQKPGQAPRLLIYDAFYRATGIPARFSGSGSGTDFTLTISSLEPEDFAVYYCQHRSNWPITFGQGTRLEIK |
| 11.2 nM | 7.03 nM | 10.5 nM | 8E11 scFv-Fc fusion (Fc fusion, not shown: a dimerising Fc or GST, scFv-Fc expressed in Expi293) scFv: QVQLQESGPGLVKPSETLSLTCTVSGDSISNYYWTWIRQPPGKGLEWIGYIYYSGTTNSNPSLKSRVTVSLDTSKSQFSLNLSSVTAADTAVYYCARVFNRGFAFDIWGQGTMVTVSSGGGGSGGGGSGGGGSGGGGSEIVLTQSPGTLSLSPGERATLSCRASQRISNTYLAWYQQKPGQAPRLLIYGASSRATGIPDRFSGSGSGTDFTLTISRLEPEDFAAYYCQQYDTSPLTFGGGTKVEIK |
| 5.53 nM | 3.05 nM | 4.51 nM | 26C8 scFv-Fc fusion (Fc fusion, not shown: a dimerising Fc or GST, scFv-Fc expressed in Expi293) scFv: QVQLQESGPGLVKPSETLSLTCTVSDNSISNYYWSWIRQPPGKGLEWIAYIYYSGTTNYNPSLKSRVTISLDTSKNQFSLQLSSVTAADAAVYYCARVFHWGFAFDIWGQGTMVTVSSGGGGSGGGGSGGGGSGGGGSEIVLTQSPGTLSLSPGERATLSCRASQRVSNTYLAWYQQNPGQAPRLLIYGASSRATGIPDRFSGSGSGTDFTLTISRLEPEDFAVYYCQQYGTSPLTFGGGTKVEIK |

Reference: patent US20230287120A1 (ALLOGENE THERAPEUTICS, published 2023)
